T1: PTPA-PP2A A-C dimer complex (Homo sapiens, UniProt Q15257)
T1 construct: His6 (C); GST (N); His8 (N); made in house; host or cells: PTPA: E. coli BL21(DE3), pET21b; PP2A C: baculovirus / insect cells
T1 sequence (Q15257 1-323 isoform Q15257-2): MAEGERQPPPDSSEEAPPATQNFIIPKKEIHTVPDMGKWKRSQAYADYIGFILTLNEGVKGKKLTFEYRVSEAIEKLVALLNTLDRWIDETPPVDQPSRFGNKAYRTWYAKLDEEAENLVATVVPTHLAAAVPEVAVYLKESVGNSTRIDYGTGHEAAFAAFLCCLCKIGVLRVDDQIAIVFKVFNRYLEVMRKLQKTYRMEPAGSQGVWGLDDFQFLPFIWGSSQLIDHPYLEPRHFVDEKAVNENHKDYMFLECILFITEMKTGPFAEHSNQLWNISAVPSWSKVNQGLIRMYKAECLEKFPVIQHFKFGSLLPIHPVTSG


Experiments:
[1] = biological target: T2, PP2A A-C dimer (Homo sapiens, UniProt P67775); test: Phosphorylase a phosphatase assay (pSer activity); format: biochemical
T2 construct: GST (N); His8 (N); made in house; C subunit: baculovirus / insect cells; dimer assembled in vitro
Protocol: (§1) To measure the phosphatase activity of PP2A, 5 μl of each PP2A sample was added to 45 μl of 0.5 mg/ml of radio-labeled ^32P-phosphorylase b dissolved in 50 mM MOPS buffer containing 1 mM DTT and 5 mM caffeine. Reactions were performed at 37° C. for 10 minutes, and stopped by addition of 10% TCA and 0.5 mg/ml BSA. Samples were kept on ice for 10 minutes to allow complete precipitation of proteins, and were centrifuged for 10 minutes at 14K rpm. Supernatants containing the released ^32P were added to 3 ml Ecosint and the intensity was measured by scintillation counter.

[2] = biological target: T2, PP2A A-C dimer; test: pNPPase activity assay; format: biochemical; details: for stimulation of pNPPase activity of PP2A by PTPA or PTPA mutant: FIG. 6B/6C
Protocol: (§2) The phosphatase activity using pNPP as substrate was performed on a 96-well plate. Briefly, 50 μl of 50 mM pNPP dissolved in 50 mM Tris-HCl (pH 8.2) buffer containing 1 mM DTT, 10 mM MgCl2 and 0.1 mg/ml BSA was added to each well. The reaction was initiated by addition of 10 μl of PP2A samples in the presence or absence of ATP and PTPA. The plate was incubated at 37° C. for 5-20 minutes and the enzymatic reaction product was measured by the absorbance at 405 nm using a plate reader.

[3] = tested on: PTPA-PP2A A-C dimer complex; test: ATPase activity assay (Malachite Green); format: biochemical, human; details: for ATPase activity: with equi-molar amount of PP2A A-C dimer
Protocol: (§3) Protein samples were prepared in 100 mM NaCl, 20 mM HEPES, pH 7.5, and 2 mM dithiothreitol. The release of free phosphate group was measured by the calorimetric Malachite Green Reagent (BioAssay Systems, Hayward, Calif.) using NaH2PO4 as phosphate standard. The protein concentration was determined by a combination of OD absorption at 280 nm and Bio-Rad Protein Assay (Bio-Rad).

[4] = biological target: T2, PP2A A-C dimer; test: Phosphotyrosine phosphatase assay using a fluorogenic peptide as the substrate; format: biochemical; details: equi-molar PTPA and PP2A, with ATP/Mg2+, FIG. 6G
Protocol: A protein tyrosine phosphatase assay kit (EMD Biosciences) was used to measure phosphotyrosine phosphatase activity. 50 nM PP2A and PTPA, or PTPA mutants were added to a fluorogenic phosphopeptide substrate (MCA-Gly-Asp-Ala-Glu-pTyr-Ala-Ala-Lys(DNP)-Arg-NH2, 1 μM) and incubated at room temperature under very low light conditions. After 10 minutes of incubation, sodium vanadate solution was added to stop the reaction. […] The fluorescent intensity was monitored at 328 nm (excitation) and 395 nm (emission), using a Hitachi F2500 fluorescence spectrophotometer.

[5] = biological target: T1, PTPA-PP2A A-C dimer complex; test: ATPase activity assay (Malachite Green); format: biochemical; details: PTPA alone, without PP2A; 1 mM ATP and 5 mM Mg2+
Protocol: as §3

[6] = biological target: T2, PP2A A-C dimer; test: GST-mediated pull-down assay; format: binding; details: FIG. 4A; mutants compared with WT PTPA
Protocol: Approximately 30 μg of stoichiometric PP2A A-C dimer were bound to 30 μl of glutathione resin via GST-A protein. The resin was washed with 200 μl assay buffer 3 times to remove excess unbound PP2A. Then 10 μg of WT or mutant PTPA were allowed to bind the resin in a 125-μl volume. After washing 4 times with an assay buffer containing 25 mM Tris, pH 8.0, 150 mM NaCl, and 2 mM dithiothreitol (DTT), the remaining protein and resin were mixed with 15-μl SDS sample buffer and applied to SDS-PAGE. The results were visualized by SDS-polyacrylamide gel electrophoresis (SDS-PAGE) with coomassie staining.

[7] = biological target: T2, PP2A A-C dimer; test: Native polyacrylamide gel electrophoresis (native PAGE) binding; details: quantification of native-PAGE, FIG. 4C; read-out: dissociation constant between PP2A A-C dimer and PTPA
Protocol: All assays were performed at 4° C. to offset heat generated by electrophoresis. 6% poly-acrylamide (37.5:1 acrylamide:bis-acrylamide) gels were used under the buffer condition of 65 mM Tris, pH 8.5, and 65 mM boric acid. All protein samples were prepared in a 40 μl volume containing 25 mM Tris, pH 8.0, 150 mM NaCl, 2 mM DTT, and 5% glycerol. After pre-running the gels for 15 minutes, half of each sample (20 μl) was loaded into each lane and was subjected to electrophoresis with constant electric field of 15 volts/cm. The gels were stained using coomassie blue, destained, and dried for photography. The gels were scanned by a densitometer, which allowed the estimate of the binding affinity between WT PTPA and PP2A A-C dimer.

[8] = biological target: T2, PP2A A-C dimer; test: Substrate preference of PP2A (phosphorylase b versus pNPP); format: biochemical; details: for shift of substrate preference of PP2A from phosphorylase b to pNPP: PTPA mutants, FIG. 6F
Protocol: as §2, §1

T2 sequence (P30153 whole entry partner): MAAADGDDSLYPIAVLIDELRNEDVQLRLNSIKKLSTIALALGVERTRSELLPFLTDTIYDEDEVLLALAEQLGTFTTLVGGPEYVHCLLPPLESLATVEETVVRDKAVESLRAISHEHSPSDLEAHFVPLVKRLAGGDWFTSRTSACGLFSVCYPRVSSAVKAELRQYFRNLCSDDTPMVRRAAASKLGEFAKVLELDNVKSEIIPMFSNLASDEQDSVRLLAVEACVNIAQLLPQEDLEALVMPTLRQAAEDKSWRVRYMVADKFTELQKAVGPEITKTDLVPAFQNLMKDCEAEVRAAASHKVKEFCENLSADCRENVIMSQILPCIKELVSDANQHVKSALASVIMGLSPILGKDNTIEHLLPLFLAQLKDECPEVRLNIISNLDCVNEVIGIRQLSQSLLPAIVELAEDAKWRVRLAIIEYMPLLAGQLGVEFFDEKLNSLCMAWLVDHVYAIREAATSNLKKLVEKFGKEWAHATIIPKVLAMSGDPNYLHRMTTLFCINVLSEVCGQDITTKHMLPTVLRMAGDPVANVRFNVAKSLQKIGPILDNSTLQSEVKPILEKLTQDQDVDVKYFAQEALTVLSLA
T2 sequence (P67775 whole entry): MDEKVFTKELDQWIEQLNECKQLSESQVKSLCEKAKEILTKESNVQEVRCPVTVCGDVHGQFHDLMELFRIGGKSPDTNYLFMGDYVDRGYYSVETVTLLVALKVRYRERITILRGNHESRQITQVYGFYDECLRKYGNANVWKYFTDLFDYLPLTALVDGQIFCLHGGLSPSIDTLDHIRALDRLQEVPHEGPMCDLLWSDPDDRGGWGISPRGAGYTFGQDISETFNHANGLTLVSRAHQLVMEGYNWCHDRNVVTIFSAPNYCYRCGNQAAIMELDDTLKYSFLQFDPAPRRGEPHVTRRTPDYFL

Row | Molecule | stimulation of pTyr phosphatase activity of PP2A (peptide substrate) [4] | ATPase activity ([3]; 1 mM ATP and 5 mM Mg2+) | stimulation of pNPPase activity of PP2A by PTPA or PTPA mutant ([2]; with ATP/Mg2+) | interaction with PP2A A-C dimer in GST-mediated pull-down [6] | shift of substrate preference of PP2A from phosphorylase b to pNPP [8] | further results
1 | ATP [ATP/Mg^2+, reference compound] | – | – | – | – | – | effect of ATP/Mg2+ on PP2A pSer activity ([1]; with PTPA or mutants, FIG. 6D): did not effect
2 | Nc1ncnc2c1ncn2[C@@H]1O[C@H](COP(=O)(O)OP(=O)(O)OP(O)(O)=S)[C@@H](O)[C@H]1O [ATPγS, reference compound] | – | – | – | – | – | stimulation of pNPPase activity of PP2A by ATP analog ([2]; provided to PP2A alone or in the presence of PTPA, FIG. 6B): fails to stimulate
3 | C=C1[C@@H](O)[C@@H]2O[C@]3(CC[C@H](/C=C/[C@@H](C)[C@@H]4CC(C)=C[C@@]5(O[C@H](C[C@@](C)(O)C(=O)O)CC[C@H]5O)O4)O3)CC[C@H]2O[C@@H]1[C@@H](O)C[C@H](C)[C@H]1O[C@@]2(CCCCO2)CC[C@H]1C [okadaic acid, reference compound] | – | – | – | – | – | inhibition of PTPA/PP2A ATPase activity ([3]; FIG. 5A): inhibited
4 | phosphotyrosyl phosphatase activator (protein, UniProt Q15257 2-358, looked up, His6 tag) Serine/threonine-protein …: AEGERQPPPDSSEEAPPATQNFIIPKKEIHTVPDMGKWKRSQAYADYIGFILTLNEGVKGKKLTFEYRVSEMWNEVHEEKEQAAKQSVSCDECIPLPRAGHCAPSEAIEKLVALLNTLDRWIDETPPVDQPSRFGNKAYRTWYAKLDEEAENLVATVVPTHLAAAVPEVAVYLKESVGNSTRIDYGTGHEAAFAAFLCCLCKIGVLRVDDQIAIVFKVFNRYLEVMRKLQKTYRMEPAGSQGVWGLDDFQFLPFIWGSSQLIDHPYLEPRHFVDEKAVNENHKDYMFLECILFITEMKTGPFAEHSNQLWNISAVPSWSKVNQGLIRMYKAECLEKFPVIQHFKFGSLLPIHPVTSG | enhanced phosphotyrosine phosphatase activity | significant ATPase activity | greatly enhanced | formed a stable complex | – | catalytic turnover rate of ATPase activity ([3]; PTPA with equi-molar PP2A A-C dimer, 1 mM ATP and 5 mM Mg2+): approximately 2 per minute; Km ([3]; equi-molar amount of PP2A and PTPA, FIG. 5B): ~400 µM; ATPase activity [5]: did not exhibit any detectable ATPase activity; pNPPase activity of PTPA-stimulated PP2A relative to PP2A in the absence of PTPA ([2]; equi-molar concentrations, with ATP/Mg2+): approximately 6 fold; PP2A pSer/pThr activity relative to PP2A alone ([1]; about 20-to-1 molar ratio of PTPA to PP2A (maximal reduction), FIG. 6E): approximately 25%; reduction of PP2A pSer activity ([1]; equi-molar amount of WT PTPA, FIG. 6D): approximately 45%; effect on pSer activity of PP2A in titration ([1]; titrated against a fixed amount of PP2A A-C dimer, FIG. 6E): inhibited the pSer activity of PP2A in a concentration-dependent manor; Kd [7]: ~1000 nM; shift of substrate preference of PP2A A-C dimer from phosphorylase b to pNPP ([8]; stoichiometric ratio of 1:1, FIG. 6F): about 10 fold
5 | G205D: missense mutant of human PTPA (protein, UniProt Q15257 2-358, looked up, variant G205D) Serine/threonine-protein …: AEGERQPPPDSSEEAPPATQNFIIPKKEIHTVPDMGKWKRSQAYADYIGFILTLNEGVKGKKLTFEYRVSEMWNEVHEEKEQAAKQSVSCDECIPLPRAGHCAPSEAIEKLVALLNTLDRWIDETPPVDQPSRFGNKAYRTWYAKLDEEAENLVATVVPTHLAAAVPEVAVYLKESVGNSTRIDYGTGHEAAFAAFLCCLCKIDVLRVDDQIAIVFKVFNRYLEVMRKLQKTYRMEPAGSQGVWGLDDFQFLPFIWGSSQLIDHPYLEPRHFVDEKAVNENHKDYMFLECILFITEMKTGPFAEHSNQLWNISAVPSWSKVNQGLIRMYKAECLEKFPVIQHFKFGSLLPIHPVTSG | did not stimulate | significantly lower or undetectable ATPase activity | do not stimulate | did not have a significant effect | not observed | –
6 | V209D: missense mutant of human PTPA (protein, UniProt Q15257 2-358, looked up, variant V209D) Serine/threonine-protein …: AEGERQPPPDSSEEAPPATQNFIIPKKEIHTVPDMGKWKRSQAYADYIGFILTLNEGVKGKKLTFEYRVSEMWNEVHEEKEQAAKQSVSCDECIPLPRAGHCAPSEAIEKLVALLNTLDRWIDETPPVDQPSRFGNKAYRTWYAKLDEEAENLVATVVPTHLAAAVPEVAVYLKESVGNSTRIDYGTGHEAAFAAFLCCLCKIGVLRDDDQIAIVFKVFNRYLEVMRKLQKTYRMEPAGSQGVWGLDDFQFLPFIWGSSQLIDHPYLEPRHFVDEKAVNENHKDYMFLECILFITEMKTGPFAEHSNQLWNISAVPSWSKVNQGLIRMYKAECLEKFPVIQHFKFGSLLPIHPVTSG | did not stimulate | significantly lower or undetectable ATPase activity | – | significantly compromised binding | not observed | –

From patent US20080153773A1, “MODULATORS OF PHOSPHOTYROSYL PHOSPHATASE ACTIVATOR” (priority 2006, published 2008)
